Here are results for three molecules from PMC7155755, “Binding of the Human 14-3-3 Isoforms to Distinct Sites in the Leucine-Rich Repeat Kinase 2” (Frontiers in Neuroscience, 2020).

The target of assay [1] is T1, human 14-3-3 isoform η (Homo sapiens, UniProt Q04917).
T1 construct: MBP (cleaved yes); made in house; host or cells: E. coli BL21DE3
The assay can be described thus: Fluorescence polarization (FP) direct binding assay. The note with it: fluorescein-labeled peptide 1 nM. The method, then:
(§1) Human MBP-tagged 14-3-3 isoforms were expressed from pMAL2CX plasmids [[Kilisch et al. (2016)], [Yuan et al. (2003)]] in E. coli BL21DE3 cells. After induction with […] isopropyl-β-D-thiogalactoside, the protein was expressed for 4 h at room temperature. Cells were lysed in MBP-lysis buffer [50 mM Tris–HCl pH 7.5, 150 mM NaCl, 5 mM MgCl2, 1 mM PMSF, 1× cOmplete Protease Inhibitor EDTA-free (Roche)] using a French Pressure cell (FRENCH Press, Thermo, United States). Following centrifugation at 42,000 × g and 4°C for 30 min, the supernatant was transferred to a Maltose-agarose column (1.5 ml bed volume; New England Biolabs GmbH, Germany). Captured proteins were washed six times with 10 ml wash buffer (50 mM Tris–HCl pH 7.5, 150 mM NaCl, 5 mM MgCl2) prior to elution using wash buffer including 15 mM D-maltose. To remove the MBP tag, fusion proteins were incubated with Factor Xa (New England Biolabs GmbH, Germany), at a final concentration of 0.4 μg per 1 mg fusion protein for 24 h at RT following another 72 h at 4°C. Anion exchange chromatography was finally applied to separate residual MBP using a buffer gradient from 20 mM Tris pH 8 to 20 mM Tris pH 8 with 1 M NaCl. For this a RESOURCE Q column (GE Healthcare, United Kingdom) was utilized, employing an ÄKTApurifier (GE Healthcare, United Kingdom) or an NGC Quest Chromatography System (Bio-Rad Laboratories GmbH, Germany).
(§2) FP was used to determine binding affinities of different phosphorylated and non-phosphorylated peptides derived from LRRK2 sequences (Peps4LS GmbH, Germany) toward human 14-3-3 isoforms. Direct binding assays were performed and evaluated as previously described ([Muda et al., 2014]; [Manschwetus et al., 2019]). Briefly, both dilution series of 14-3-3 isoforms ranging from final concentrations of at least 5 μM down to picomolar concentrations and dilutions of the respective fluorescein-labeled peptide (final conc. 1 nM) were prepared in FP buffer (20 mM MOPS pH 7, 150 mM NaCl, 0.005% CHAPS). Subsequently, samples were mixed in 384-well microtiter plates as duplicates (BRAND plates, pureGrade, black, BRAND GmbH & Co. KG, Germany) in a 1:1 ratio and measured using a CLARIOstar plate reader (BMG LABTECH, Germany). Two protein preparations were utilized for at least two independent replications for all measurements while high affinity binding peptides were particularly measured with a minimum of three independent replications for statistical evaluation. Data was analyzed with GraphPad Prism 6.0 (GraphPad Software, San Diego, CA, United States) by plotting obtained FP signals (mPol) against the logarithmic 14-3-3 protein concentrations. Data points represent means ± standard error of mean (SEM) of duplicates. “Ctrl.” indicates the FP signal of fluorescein-labeled peptides without 14-3-3 protein. Sigmoidal dose-response fitting was performed to define KD-values.
In general terms: Polarisation of emitted light reports the rotation of a fluorescent probe.

The target in assay [2] is T2, human 14-3-3 isoform θ (Homo sapiens, UniProt P27348).
T2 construct: MBP (cleaved yes); made in house; host or cells: E. coli BL21DE3
The description is as above. The note with it: fluorescein-labeled peptide 1 nM. Here is the method:
as §1, §2

Assay [3] has as its target T3, human 14-3-3 isoform σ (Homo sapiens, UniProt P31947).
T3 construct: MBP (cleaved yes); made in house; host or cells: E. coli BL21DE3
T3 sequence (P31947 1-248): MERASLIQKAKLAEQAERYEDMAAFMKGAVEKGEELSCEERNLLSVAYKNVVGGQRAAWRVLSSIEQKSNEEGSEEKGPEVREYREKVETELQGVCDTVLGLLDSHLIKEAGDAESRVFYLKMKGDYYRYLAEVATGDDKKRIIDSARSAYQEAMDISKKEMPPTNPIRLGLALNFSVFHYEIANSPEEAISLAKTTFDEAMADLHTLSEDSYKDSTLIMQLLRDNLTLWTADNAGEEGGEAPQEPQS
The description is as above. The note with it: fluorescein-labeled peptide 1 nM. Here is the method: as §1, §2

Assay [4] deals with T4, human 14-3-3 isoform ϵ (Homo sapiens, UniProt P62258).
T4 construct: MBP (cleaved yes); made in house; host or cells: E. coli BL21DE3
T4 sequence (P62258 1-255): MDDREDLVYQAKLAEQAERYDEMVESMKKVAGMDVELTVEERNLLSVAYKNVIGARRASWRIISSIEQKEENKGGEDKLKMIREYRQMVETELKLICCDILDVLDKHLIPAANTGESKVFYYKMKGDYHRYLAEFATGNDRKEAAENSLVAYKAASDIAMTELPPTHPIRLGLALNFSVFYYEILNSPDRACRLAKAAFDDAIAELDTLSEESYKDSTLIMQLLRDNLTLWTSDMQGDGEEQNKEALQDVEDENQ
The description is as above. The note with it: fluorescein-labeled peptide 1 nM. Here is the method: as §1, §2

The target of assay [5] is T5, human 14-3-3γ (Homo sapiens, UniProt P61981).
T5 construct: MBP (cleaved yes); made in house; host or cells: E. coli BL21DE3
T5 sequence (P61981 1-247): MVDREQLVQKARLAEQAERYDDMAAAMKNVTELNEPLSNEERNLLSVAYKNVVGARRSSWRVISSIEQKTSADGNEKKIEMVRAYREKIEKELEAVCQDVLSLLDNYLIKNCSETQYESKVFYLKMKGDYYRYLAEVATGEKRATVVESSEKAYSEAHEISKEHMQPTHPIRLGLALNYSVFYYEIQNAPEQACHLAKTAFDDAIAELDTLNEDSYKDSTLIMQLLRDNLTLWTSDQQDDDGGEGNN
Described as above. The note with it: dilution series of 14-3-3γ (at least 5 μM down to pM), fluorescein-labeled peptide 1 nM, FP buffer pH 7. The method, then: as §1, §2

The subject of assay [6] is all seven human 14-3-3 isoforms. In words: Fluorescence polarization (FP) direct binding assay, statements over all isoforms. The note with it: FP direct binding; all seven isoforms; fluorescein-labeled peptide 1 nM; FP buffer pH 7. Here is the method: as §1, §2
The target of assay [7] is T6, human 14-3-3 isoform β (recombinant, MBP tag removed) (human, UniProt P31946 1-246).
T6 construct: 14-3-3 beta, human; Expressed from pMAL2CX plasmids; also called 14-3-3β; source: E. coli BL21DE3, purified (maltose-agarose, Factor Xa, anion exchange)
T6 sequence (looked up): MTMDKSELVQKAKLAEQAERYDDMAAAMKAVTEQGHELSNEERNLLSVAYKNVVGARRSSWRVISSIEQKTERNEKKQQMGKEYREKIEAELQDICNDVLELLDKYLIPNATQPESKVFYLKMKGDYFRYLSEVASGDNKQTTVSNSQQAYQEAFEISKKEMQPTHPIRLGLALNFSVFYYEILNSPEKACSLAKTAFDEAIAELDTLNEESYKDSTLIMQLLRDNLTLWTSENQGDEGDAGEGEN
In words: fluorescence polarisation; direct binding; dilution series of 14-3-3 isoform (at least 5 μM down to picomolar) mixed with 1 nM fluorescein-labelled peptide; 20 mM MOPS pH 7, 150 mM NaCl, 0.005% CHAPS; 384-well plates. The note with it: both partners purified.

Assay [8] addresses T7, human 14-3-3 isoform ε (recombinant, MBP tag removed) (human, UniProt P62258 1-255).
T7 construct: 14-3-3 epsilon, human; Expressed from pMAL2CX plasmids; also called 14-3-3ε; source: E. coli BL21DE3, purified (maltose-agarose, Factor Xa, anion exchange)
T7 sequence (looked up): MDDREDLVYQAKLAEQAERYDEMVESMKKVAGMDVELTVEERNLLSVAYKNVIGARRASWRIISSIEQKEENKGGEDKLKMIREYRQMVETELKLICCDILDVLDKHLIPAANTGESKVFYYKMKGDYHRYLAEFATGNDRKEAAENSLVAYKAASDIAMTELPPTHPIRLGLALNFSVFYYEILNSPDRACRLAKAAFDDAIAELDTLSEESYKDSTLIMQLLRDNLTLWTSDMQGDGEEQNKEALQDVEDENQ
The assay is described as above. The note with it: both partners purified.

In assay [9] the target is T8, human 14-3-3 isoform ζ (recombinant, MBP tag removed) (human, UniProt P63104 1-245).
T8 construct: 14-3-3 zeta, human; Expressed from pMAL2CX plasmids; also called 14-3-3ζ; source: E. coli BL21DE3, purified (maltose-agarose, Factor Xa, anion exchange)
T8 sequence (looked up): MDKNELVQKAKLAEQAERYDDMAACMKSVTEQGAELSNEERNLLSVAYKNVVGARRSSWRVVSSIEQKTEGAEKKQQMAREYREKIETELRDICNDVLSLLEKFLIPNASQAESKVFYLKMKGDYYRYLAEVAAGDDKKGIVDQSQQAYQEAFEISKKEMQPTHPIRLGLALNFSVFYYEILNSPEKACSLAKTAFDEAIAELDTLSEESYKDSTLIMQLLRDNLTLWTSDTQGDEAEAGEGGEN
The assay is described as above. The note with it: both partners purified.

The target of assay [10] is T9, human 14-3-3 isoform η (recombinant, MBP tag removed) (human, UniProt Q04917 1-246).
T9 construct: 14-3-3 eta, human; Expressed from pMAL2CX plasmids; also called 14-3-3η; source: E. coli BL21DE3, purified (maltose-agarose, Factor Xa, anion exchange)
T9 sequence (looked up): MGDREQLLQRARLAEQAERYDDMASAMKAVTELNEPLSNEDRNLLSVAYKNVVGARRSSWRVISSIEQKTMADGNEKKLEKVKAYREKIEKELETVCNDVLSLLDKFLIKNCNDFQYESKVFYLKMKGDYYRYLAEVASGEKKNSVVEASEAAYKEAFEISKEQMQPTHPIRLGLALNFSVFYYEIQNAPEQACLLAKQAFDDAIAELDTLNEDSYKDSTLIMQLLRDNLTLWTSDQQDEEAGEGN
The assay is described as above. The note with it: both partners purified.

Assay [11] has as its target T10, human 14-3-3 isoform θ (recombinant, MBP tag removed) (human, UniProt P27348 1-245).
T10 construct: 14-3-3 theta, human; Expressed from pMAL2CX plasmids; also called 14-3-3θ; source: E. coli BL21DE3, purified (maltose-agarose, Factor Xa, anion exchange)
T10 sequence (looked up): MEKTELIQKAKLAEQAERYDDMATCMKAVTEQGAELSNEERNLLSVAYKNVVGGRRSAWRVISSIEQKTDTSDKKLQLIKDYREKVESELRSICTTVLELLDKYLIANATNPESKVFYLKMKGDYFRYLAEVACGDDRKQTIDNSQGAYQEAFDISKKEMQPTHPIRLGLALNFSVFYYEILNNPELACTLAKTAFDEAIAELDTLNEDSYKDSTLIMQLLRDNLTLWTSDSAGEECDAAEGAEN
Described as above. The note with it: both partners purified.

Assay [12] concerns the target T11, human 14-3-3 isoform σ (recombinant, MBP tag removed) (human, UniProt P31947 1-248).
T11 construct: 14-3-3 sigma, human; Expressed from pMAL2CX plasmids; also called 14-3-3σ; source: E. coli BL21DE3, purified (maltose-agarose, Factor Xa, anion exchange)
T11 sequence (looked up): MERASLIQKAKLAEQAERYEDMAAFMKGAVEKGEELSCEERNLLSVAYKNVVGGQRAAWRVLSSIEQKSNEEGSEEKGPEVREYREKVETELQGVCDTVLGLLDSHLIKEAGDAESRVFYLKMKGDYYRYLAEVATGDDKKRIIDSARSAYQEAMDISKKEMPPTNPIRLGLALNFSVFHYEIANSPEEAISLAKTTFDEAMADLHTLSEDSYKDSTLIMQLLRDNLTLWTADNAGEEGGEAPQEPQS
The assay is described as above. The note with it: both partners purified.

For orientation: Kd means the free concentration of one partner at which half of the binding sites on the other are occupied at equilibrium, for simple one-to-one binding.

“Also recorded” adds a separate entry of the source. Square brackets hold non-standard residues; d marks the D form. Ends that are not written are not given here. fluorescein = N-terminal fluorescein label; pS = N[C@@H](COP(=O)(O)O)C(=O)O

In the case of “SFLVKKKSNpSISVGEFYRD [pS910, fluorescein-labeled LRRK2-derived phosphopeptide covering pS910]”, the “Binding to 14-3-3 isoform η, in words” value in [1] is given as “highest affinities, yet in a micromolar range”. The “Binding to 14-3-3 isoform θ, in words” value in assay [2] is recorded as “weakest binding”. In assay [3], the “Binding to 14-3-3 isoform σ, in words” value is given as “No binding”. Moreover, the “Binding to 14-3-3 isoform ϵ, in words” value in [4] is listed as “No binding”. Further, the “Binding to 14-3-3γ, in words” value in [5] is given as “micromolar binding affinity; also recorded: highest affinities, yet in a micromolar range”. In assay [6], the “Binding to the human 14-3-3 isoforms, in words” value is “micromolar affinities for the 14-3-3 isoforms except σ and ϵ; also recorded: low affinity”.

B1: pS910/pS935 (peptide)
peptide: fluorescein-KKSN[pS]ISVGEFYRDAVLQRCSPNLQRHSN[pS]LGPIF
notes: LRRK2-derived 35-mer covering S910 and S935, phosphorylated at both; source: synthetic peptide (Peps4LS GmbH)
In the case of B1, the Kd in assay [7] was found to be 21.1 nM; in assay [8], 12.4 nM; in [9], 4.8 nM; in assay [10], 4.8 nM; in [11], 9.5 nM; in assay [12], 60.6 nM.

B2: Q930R/pS935 (peptide)
peptide: fluorescein-RCSPNLRRHSN[pS]LGPIFDH
notes: LRRK2-derived peptide with the possible pathogenic mutation Q930R, phosphorylated at S935; source: synthetic peptide (Peps4LS GmbH)
On to B2, for which the dissociation constant (Kd) in assay [7] worked out at 29.5 nM; in [8], 48.5 nM; in assay [9] it was 23.9 nM; in [10] it was 13.3 nM; in assay [11], 73.1 nM; in assay [12], 350 nM.
